Earlier results in paper PMC5419744.
pKd: −log10 of the molar value.

Molecular target: DNA polymerase III subunit tau (Escherichia coli) (UniProt P06710)
Chain of UniProt P06710 (P06710 2-643): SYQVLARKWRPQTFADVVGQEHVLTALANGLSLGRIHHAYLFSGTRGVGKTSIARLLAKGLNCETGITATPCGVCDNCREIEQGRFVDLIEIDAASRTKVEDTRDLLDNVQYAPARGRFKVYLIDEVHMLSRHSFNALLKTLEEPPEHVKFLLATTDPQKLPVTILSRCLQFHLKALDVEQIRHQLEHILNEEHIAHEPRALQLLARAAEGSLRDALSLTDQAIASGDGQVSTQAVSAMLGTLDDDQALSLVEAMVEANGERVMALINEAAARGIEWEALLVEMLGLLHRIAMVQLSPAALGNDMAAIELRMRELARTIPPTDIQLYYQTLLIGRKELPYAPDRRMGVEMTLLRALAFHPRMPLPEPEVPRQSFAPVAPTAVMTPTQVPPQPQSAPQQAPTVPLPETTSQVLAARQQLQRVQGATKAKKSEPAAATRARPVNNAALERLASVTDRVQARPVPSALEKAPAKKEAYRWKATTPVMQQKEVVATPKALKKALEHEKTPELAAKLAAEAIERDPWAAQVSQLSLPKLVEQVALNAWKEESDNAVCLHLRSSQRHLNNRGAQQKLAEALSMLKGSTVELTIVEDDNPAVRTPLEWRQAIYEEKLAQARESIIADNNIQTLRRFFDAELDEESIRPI

pKd: 9.52
Substance: DNA polymerase III subunit alpha (from UniProt P10443)
